Target: Caspase-8 (endogenous, in melanocytes and melanoma cells) (human) (UniProt Q14790)
Assay: cell-based or functional assay

Sequence of Caspase-8 (endogenous, in melanocytes and melanoma cells) (human) (Q14790 whole entry): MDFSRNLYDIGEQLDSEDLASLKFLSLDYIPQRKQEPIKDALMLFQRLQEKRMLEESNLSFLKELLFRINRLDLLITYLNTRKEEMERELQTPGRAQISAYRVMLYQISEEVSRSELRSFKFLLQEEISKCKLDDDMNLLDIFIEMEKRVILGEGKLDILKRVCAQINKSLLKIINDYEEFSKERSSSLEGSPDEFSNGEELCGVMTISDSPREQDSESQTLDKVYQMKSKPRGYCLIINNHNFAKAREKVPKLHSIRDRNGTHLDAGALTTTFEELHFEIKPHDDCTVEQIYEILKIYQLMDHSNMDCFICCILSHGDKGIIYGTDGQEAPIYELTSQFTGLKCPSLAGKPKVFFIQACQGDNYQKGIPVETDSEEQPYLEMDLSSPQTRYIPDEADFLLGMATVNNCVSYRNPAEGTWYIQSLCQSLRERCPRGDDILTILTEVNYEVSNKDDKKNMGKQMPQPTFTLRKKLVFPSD

Concentration needed to block ET-1 induced E-cadherin down-regulation, relative to the 'IETD' inhibitor: 10 fold
Substance: Cell permeable caspase inhibitor containing the sequence DEVD (from UniProt P08620 7-22) (peptide)

From patent publication US8597645
